Assay results taken from US20160368974A1 (UMC UTRECHT HOLDING B V, published 2016).
Ends that are not written are not given here.

T1: peptide …
T1 sequence (peptide): TYSSPEDGIHELAP

T2: peptide …
T2 sequence (peptide): TYSSPEDAIHELFP

T3: peptide …
T3 sequence (peptide): TYSSPEDGAHELFP

T4: peptide TASSPEDGIHELFP (also: covalently linked to a PEPSCAN card)
T4 construct: also called replaced amino acid Y
T4 peptide: TASSPEDGIHELFP

T5: peptide AYSSPEDGIHELFP (also: covalently linked to a PEPSCAN card)
T5 construct: also called replaced amino acid T
T5 peptide: AYSSPEDGIHELFP

T6: peptide TYSAPEDGIHELFP (also: covalently linked to a PEPSCAN card)
T6 construct: also called replaced amino acid S (second)
T6 peptide: TYSAPEDGIHELFP

T7: peptide TYSSPEDGIHEAFP (also: covalently linked to a PEPSCAN card)
T7 construct: also called replaced amino acid L
T7 peptide: TYSSPEDGIHEAFP

T8: peptide TYSSPEDGIHELFP (also: covalently linked to a PEPSCAN card)
T8 construct: Synthetic peptide covalently linked to a PEPSCAN card; parent peptide of the alanine scan; also called replaced amino acid: none
T8 peptide: TYSSPEDGIHELFP

T9: peptide TYASPEDGIHELFP (also: covalently linked to a PEPSCAN card)
T9 construct: also called replaced amino acid S (first)
T9 peptide: TYASPEDGIHELFP

T10: peptide TYSSPEDGIHALFP (also: covalently linked to a PEPSCAN card)
T10 construct: also called replaced amino acid E (second)
T10 peptide: TYSSPEDGIHALFP

T11: peptide TYSSPEDGIHELFA (also: covalently linked to a PEPSCAN card)
T11 construct: also called replaced amino acid P (second)
T11 peptide: TYSSPEDGIHELFA

T12: peptide TYSSPEAGIHELFP (also: covalently linked to a PEPSCAN card)
T12 construct: also called replaced amino acid D
T12 peptide: TYSSPEAGIHELFP

T13: peptide TYSSAEDGIHELFP (also: covalently linked to a PEPSCAN card)
T13 construct: also called replaced amino acid P (first)
T13 peptide: TYSSAEDGIHELFP

T14: peptide TYSSPEDGIAELFP (also: covalently linked to a PEPSCAN card)
T14 construct: also called replaced amino acid H
T14 peptide: TYSSPEDGIAELFP

T15: peptide TYSSPADGIHELFP (also: covalently linked to a PEPSCAN card)
T15 construct: also called replaced amino acid E (first)
T15 peptide: TYSSPADGIHELFP

T16: peptide …
T16 sequence (peptide): TYSSPEDGIHEAFP


What was measured:
Assay in all cases: PEPSCAN-based ELISA, peptide linked to card
[1] = target: T1, peptide …
[2] = target: T2, peptide …; remark: listed apart in the source
[3] = target: T3, peptide …; remark: listed apart in the source
peptide TASSPEDGIHELFP = target: T4, peptide TASSPEDGIHELFP
Description: (§1) The binding of antibody to each peptide was tested in a PEPSCAN-based ELISA. The 455-well credit card format polypropylene cars containing the covalently linked peptides were incubated with primary antibody solution consisting of 0.05 micrograms antibody/mL diluted in blocking solution, i.e., 4% horse serum, 5% ovalbumin (w/v) in PBS/0.1% Tween. After washing, the peptides were incubated with a 1/1000 dilution of antibody peroxidase conjugate for one hour at 25° C. After washing, the peroxidase substrate 2,2′-azino-di-3-ehtylbenzthiazoline sulfonate (ABTS) and 2 microliters of 3 percent H₂O₂ were added. After one hour, the colour development was measured. The colour development was quantified with a charge coupled device (CCD)-camera and an image processing system (as firstly described in Slootstra et al. Mol Divers. 1996 February; 1(2):87-96).
(§2) Peptide synthesis, screening assays and data calculation for alanine-scan of fibronectin-EDA epitope are performed as described in Example 1. Peptides based on […] were synthesized wherein in each peptide one amino acid is replaced by an alanine. The peptides were tested for binding by antibodies 27A12.70, 29E7.35, 17G8.72 and 42H11.51.

peptide AYSSPEDGIHELFP = target: T5, peptide AYSSPEDGIHELFP
Description: as §1, §2

peptide TYSAPEDGIHELFP = target: T6, peptide TYSAPEDGIHELFP
Description: as §1, §2

peptide TYSSPEDGIHEAFP = target: T7, peptide TYSSPEDGIHEAFP
Description: as §1, §2

peptide TYSSPEDGIHELFP = target: T8, peptide TYSSPEDGIHELFP
Description: as §1, §2

peptide TYASPEDGIHELFP = target: T9, peptide TYASPEDGIHELFP
Description: as §1, §2

peptide TYSSPEDGIHALFP = target: T10, peptide TYSSPEDGIHALFP
Description: as §1, §2

peptide TYSSPEDGIHELFA = target: T11, peptide TYSSPEDGIHELFA
Description: as §1, §2

peptide TYSSPEAGIHELFP = target: T12, peptide TYSSPEAGIHELFP
Description: as §1, §2

peptide TYSSAEDGIHELFP = target: T13, peptide TYSSAEDGIHELFP
Description: as §1, §2

peptide TYSSPEDGIAELFP = target: T14, peptide TYSSPEDGIAELFP
Description: as §1, §2

peptide TYSSPADGIHELFP = target: T15, peptide TYSSPADGIHELFP
Description: as §1, §2

[4] = target: T16, peptide …; remark: listed apart in the source

Antibody binding (arbitrary optical density units) (arbitrary optical density units) [1]	Antibody binding (arbitrary optical density units) (arbitrary optical density units) [2]	Antibody binding (arbitrary optical density units) (arbitrary optical density units) [3]	Antibody binding (arbitrary optical density units) (peptide TASSPEDGIHELFP)	Antibody binding (arbitrary optical density units) (peptide AYSSPEDGIHELFP)	Antibody binding (arbitrary optical density units) (peptide TYSAPEDGIHELFP)	Antibody binding (arbitrary optical density units) (peptide TYSSPEDGIHEAFP)	Antibody binding (arbitrary optical density units) (peptide TYSSPEDGIHELFP)	Antibody binding (arbitrary optical density units) (peptide TYASPEDGIHELFP)	Antibody binding (arbitrary optical density units) (peptide TYSSPEDGIHALFP)	Antibody binding (arbitrary optical density units) (peptide TYSSPEDGIHELFA)	Antibody binding (arbitrary optical density units) (peptide TYSSPEAGIHELFP)	Antibody binding (arbitrary optical density units) (peptide TYSSAEDGIHELFP)	Antibody binding (arbitrary optical density units) (peptide TYSSPEDGIAELFP)	Antibody binding (arbitrary optical density units) (peptide TYSSPADGIHELFP)	Antibody binding (arbitrary optical density units) (arbitrary optical density units) [4]	Binder
106	89	66	2670 arbitrary optical density units	2150 arbitrary optical density units	2100 arbitrary optical density units	1550 arbitrary optical density units	2090 arbitrary optical density units	2500 arbitrary optical density units	2100 arbitrary optical density units	2160 arbitrary optical density units	2650 arbitrary optical density units	2090 arbitrary optical density units	2560 arbitrary optical density units	2480 arbitrary optical density units	–	antibody 17G8.72 (antibody, V domains shown, Monoclonal antibody against the EDA domain of fibronectin-EDA; also called 17G8.7VL) VH: DVQLQESGPDLVKPSQSLSLTCTVTGYSIASGYSWHWIRQFPGNKLEWMGYIHFSGSANYNPSLKSRISITRDTSKNQFFLQLNSVTTEDTATYYCASEARGYFDYWGQGTTLTVSS VL: DVLMTQTPLSLPVSLGDQASISCRSSQSIVRSNGNTYLTWYLQKPGQSPKLLIYKVSNRFSGVPDRFSGSGSGTDFTLKISRVEAEDLGVYFCFQGSHVPPTFGSGTKLEIKR
249	122	91	2790 arbitrary optical density units	2710 arbitrary optical density units	2680 arbitrary optical density units	1780 arbitrary optical density units	2680 arbitrary optical density units	2720 arbitrary optical density units	2200 arbitrary optical density units	2600 arbitrary optical density units	2750 arbitrary optical density units	2710 arbitrary optical density units	2400 arbitrary optical density units	2690 arbitrary optical density units	–	antibody 27A12.70 (antibody, V domains shown, Murine monoclonal antibody against the EDA domain of fibronectin-EDA) VH: DVQLQESGPDLVKPSQSLSLTCTVTGYSITSGYSWHWIRQFPGNKLEWMGYIHYSGIANYNPSLKSRISITRDTSKNHFFLQLNSVTTEDTATYYCATEKTGFFDYWGQGTTLTVSS VL: DVVMTQTPLSLPVSLGDQASISCRSSQSLVHSNGNTYLHWYLQKPGQSPKLLIYKVSNRFSGVPDRFSGSGSGTDFTLKISRVEAEDLGVYFCSQSAHVPPTFGGGTKLEIKR
124	81	74	2840 arbitrary optical density units	2780 arbitrary optical density units	2630 arbitrary optical density units	–	2750 arbitrary optical density units	2740 arbitrary optical density units	302 arbitrary optical density units	2600 arbitrary optical density units	2720 arbitrary optical density units	2660 arbitrary optical density units	1800 arbitrary optical density units	2630 arbitrary optical density units	194	antibody 29E7.35 (antibody, V domains shown, Monoclonal antibody against the EDA domain of fibronectin-EDA) VH: AVQLQESGPDLVKPSHSLSLTCTVTGYSITSGYSWHWIRQFPGNKLEWMGYIHYSGSANYNPSLKSRFSITRDTSKNQFFLQLNSVTTEDTATYYCATEKTGFFDYWGQGTTLTVSS VL: DVVMTQTPLSLPVSLGDQASISCRSSQSLVHSNGNTYLHWYLQKPGQSPKLLIYKVSNRFSGVPDRFSGSGSGTDFTLKISRVEAEDLGVYFCSQSAHVPPTFGGGTKLEIKR
